Laboratory results taken from patent publication US20010016352, “NUCLEIC ACID SEQUENCES CONTROLLING LUNG CELL-SPECIFIC GENE EXPRESSION” (published 2001).

What was measured:
TTF-1 full length = target: T1, TTF-1 full length (UniProt P23441); assay: cell_activity; settings: SV40-P F + pCMV-TTF-1 in H441, relative to SV40-P =1 (3.5 without TTF-1)
T1 sequence: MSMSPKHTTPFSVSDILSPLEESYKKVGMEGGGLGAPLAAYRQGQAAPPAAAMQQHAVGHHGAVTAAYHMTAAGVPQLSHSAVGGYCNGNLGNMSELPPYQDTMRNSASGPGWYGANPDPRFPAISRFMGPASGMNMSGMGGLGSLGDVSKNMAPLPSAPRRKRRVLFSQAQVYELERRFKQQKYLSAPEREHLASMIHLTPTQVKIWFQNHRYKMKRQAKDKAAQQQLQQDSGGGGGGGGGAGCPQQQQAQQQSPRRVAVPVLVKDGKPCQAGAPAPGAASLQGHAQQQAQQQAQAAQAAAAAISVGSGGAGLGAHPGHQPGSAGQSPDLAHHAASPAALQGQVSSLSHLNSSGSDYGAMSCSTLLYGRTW

[1] = target: T2, TTF-1 homeodomain (TTF-1 HD) (Rattus norvegicus, UniProt P23441 P23441:161-220); assay: EMSA; settings: tags: bacterially expressed homeodomain fragment; label: 32P
T2 sequence: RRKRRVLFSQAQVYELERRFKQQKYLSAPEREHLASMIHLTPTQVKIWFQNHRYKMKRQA

[2] = target: T2, TTF-1 homeodomain (TTF-1 HD); assay: EMSA; two complexes A' and B'; on ice, 5 mM MgCl2; settings: tags: bacterially expressed homeodomain fragment; label: 32P
Procedure: The electrophoretic mobility shift assay (EMSA) was adapted from Hennighausen and Lubon, Meth. Enzymol., Vol. 152, pgs. 727-735 (1987). Briefly, nuclear extract (1-2 μl) and, when indicated, unlabeled oligonucleotide competitor DNA were preincubated in 20 μl Buffer C (12 mM HEPES, pH 7.9; 4 mM Tris-Cl pH 7.9; 25 mM KCl; 5 mM MgCl₂; 1 mM EDTA; 1 mM DTT; 50 ng μl⁻¹ poly[d(I-C)], Boehringer Mannheim; 0.2 mM fresh PMSF) for 10 minutes on ice. Probe (100,000 dpm) was added and incubated an additional 20 minutes on ice. For antibody supershift and interference assays, 1 μl of antibody was added after the addition of probe and incubated an additional 20 minutes on ice. TTF-1 antibody is described in Lazzaro et al., Development, Vol. 113, pgs. 1093-1104 (1991). HNF-3α, β, and γ antibodies were kindly provided by Dr. J. E. Darnell, Jr. (Lai et al., Genes and Devel., Vol. 5, pgs. 416-427 (1991)). Recombinant, bacterially expressed TTF-1 homeodomain protein (TTF-1 HD) is described in Guazzi et al., EMBO J., Vol. 9, pgs. 3631-3639 (1990). Assays were performed using 1 μl TTF-1 HD in place of nuclear extract. Bound and free probe were resolved using non-denaturing polyacrylamide gel electrophoresis. […]

Q: For “CAGGGCTTGCCCTGGGTTAAGAGCCAGGCAGGAAGCTCTCAAGAGCATTGCTCAGAGGGGGCCTGGGTGGCCCAGGGAGGGGATGCGAGGGGAACACCCAGGC (double strand) [hSP-B -439/-331 enhancer]”, which activity (TTF-1 full length) is on record?
A: 8.3 fold

B1: Ba wild type (dsDNA)
DNA 1: CAGGGCTTGCCCTGGGTTAAGAGCCAGGCA
DNA 2: TGCCTGGCTCTTAACCCAGGGCAAGCCCTG
Q: Does B1 bind [1]?
A: binds

B2: SPB-f1 (dsDNA)
DNA 1: AGCACCTGGAGGGCTCTTCAGAGC
DNA 2: GCTCTGAAGAGCCCTCCAGGTGCT
Q: Does B2 bind [2]?
A: binds
